Results from the supplement of paper PMC10567573.

B1: NEK8 (parent)
chain: VVGTPCYISPELCEGKPYNQKSDI

Variants of: B1
Assay: protein stability index of a GFP-peptide fusion (GPS, HEK-293T) (PSI 1-6); higher = more stable
Conditions: c terminus: a fixed tail appended
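Also: lentivirally expressed fusions sorted by FACS into six bins by GFP to DsRed ratio, PSI derived from sequencing read proportions per bin multiplied by bin number.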

Variant	protein stability index
VVGEPCYISPELCEGKPYNQKSDI	4.08
VVGYPCYISPELCEGKPYNQKSDI	2.25
VVGMPCYISPELCEGKPYNQKSDI	2.78
VVGNPCYISPELCEGKPYNQKSDI	3.87
VVGHPCYISPELCEGKPYNQKSDI	3.02
VVGCPCYISPELCEGKPYNQKSDI	2.85
VVGWPCYISPELCEGKPYNQKSDI	2.13
VVGKPCYISPELCEGKPYNQKSDI	3.45
VVGFPCYISPELCEGKPYNQKSDI	2.21
VVGQPCYISPELCEGKPYNQKSDI	4.19
VVGIPCYISPELCEGKPYNQKSDI	1.75
VVGLPCYISPELCEGKPYNQKSDI	2.39
VVGSPCYISPELCEGKPYNQKSDI	3.68
VVGTPCYISPELCEGKPYNQKSDT	3.97
VVGTPCYISPELCEGKPYNQKSDQ	3.33
VVGTPCYISPELCEGKPYNQKSDS	3.56
VVGTPCYISPELCEGKPYNQKSDP	3.18
VVGTPCYISPELCEGKPYNQKSDG	3.4
VVGTPCYISPELCEGKPYNQKSDH	3.18
VVGTPCYISPELCEGKPYNQKSDC	2.91
VVGTPCYISPELCEGKPYNQKSDE	2.94
VVGTPCYISPELCEGCPYNQKSDI	2.43
VVGTPCYISPELCEGMPYNQKSDI	2.81
VVGTPCYISPELCEGIPYNQKSDI	2.02

Variant	protein stability index
VVGTPCYISPELCEGVPYNQKSDI	2.78
VVGTPCYISPELCEGYPYNQKSDI	1.96
VVGTPIYISPELCEGKPYNQKSDI	3.07
VVGTPFYISPELCEGKPYNQKSDI	2.14
VVGTPEYISPELCEGKPYNQKSDI	4.34
VVGTPQYISPELCEGKPYNQKSDI	4.11
VVGTPLYISPELCEGKPYNQKSDI	3.25
VVGTPTYISPELCEGKPYNQKSDI	3.26
VVGTPMYISPELCEGKPYNQKSDI	3.56
VVGTPYYISPELCEGKPYNQKSDI	2.02
VVGTPVYISPELCEGKPYNQKSDI	2.71
VVGTPRYISPELCEGKPYNQKSDI	3.88
VVGTPCYISEELCEGKPYNQKSDI	3.6
VVGTPCYISSELCEGKPYNQKSDI	3.39
VVGTPCYISCELCEGKPYNQKSDI	2.22
VVGTPCYISVELCEGKPYNQKSDI	1.75
VVGTPCYISFELCEGKPYNQKSDI	2.03
VVGTPCYISGELCEGKPYNQKSDI	3.56
VVGTPCYISIELCEGKPYNQKSDI	1.49
VVGTPCYISLELCEGKPYNQKSDI	2.01
VVGTPCYISNELCEGKPYNQKSDI	3.44
VVGTPCYISPELCEGKPYNQFSDI	1.75
VVGTPCYISPELCEGKPYNQQSDI	2.92
VVGTPCYISPELCEGKPYNQHSDI	2.86

Variant	protein stability index
VVGTPCYISPELCEGKPYNQISDI	1.97
VVGTPCYISPELCEGKPYNQGSDI	2.79
VVGTPCYISPELCEGKPYNQTSDI	2.48
VVGTPCYQSPELCEGKPYNQKSDI	4.42
VVGTPCYYSPELCEGKPYNQKSDI	2.31
VVGTPCYMSPELCEGKPYNQKSDI	2.89
VVGTPCYHSPELCEGKPYNQKSDI	3.2
VVGTPCYESPELCEGKPYNQKSDI	4.5
VVGTPCYDSPELCEGKPYNQKSDI	4.18
VVGTPCYLSPELCEGKPYNQKSDI	3.48
VVGTPCYWSPELCEGKPYNQKSDI	2.27
VVGTPCYFSPELCEGKPYNQKSDI	2.9
VVGTPCYIGPELCEGKPYNQKSDI	2.99
VVGTPCYIYPELCEGKPYNQKSDI	1.55
VVGTPCYIQPELCEGKPYNQKSDI	2.62
VVGTPCYIKPELCEGKPYNQKSDI	3.61
VVGTPCYICPELCEGKPYNQKSDI	1.94
VVGTPCYIHPELCEGKPYNQKSDI	2.04
VVGTPCYIFPELCEGKPYNQKSDI	1.96
VVGTPCYIIPELCEGKPYNQKSDI	2.32
VVGTPCYISPELCEGKCYNQKSDI	2.22
VVGTPCYISPELCEGKLYNQKSDI	2.23
VVGTPCYISPELCEGKVYNQKSDI	2.55
VVGTPCYISPELCEGKMYNQKSDI	2.35

Variant	protein stability index
VVGTPCYISPELCEGKEYNQKSDI	3.09
VVGTPCEISPELCEGKPYNQKSDI	4.5
VVGTPCKISPELCEGKPYNQKSDI	3.92
VVGTPCDISPELCEGKPYNQKSDI	4.69
VVGTPCWISPELCEGKPYNQKSDI	2.82
VVGTPCIISPELCEGKPYNQKSDI	4.08
VVGTPCFISPELCEGKPYNQKSDI	3.05
VVGTPCRISPELCEGKPYNQKSDI	3.96
VVGTPCVISPELCEGKPYNQKSDI	4.04
VVGTPCHISPELCEGKPYNQKSDI	3.87
VVGTPCSISPELCEGKPYNQKSDI	3.69
VVGTPCYISPELCESKPYNQKSDI	2.37
VVGTPCYISPELCERKPYNQKSDI	2.85
VVGTPCYISPELCEWKPYNQKSDI	1.64
VVGTPCYISPELCECKPYNQKSDI	2.47
VVGTPCYISPELCETKPYNQKSDI	2.87
VVGTPCYISPELCELKPYNQKSDI	2.19
VVGTPCYISPELCEMKPYNQKSDI	2.39
VVGTPCYISPEQCEGKPYNQKSDI	2.71
VVGTPCYISPEFCEGKPYNQKSDI	2.15
VVGTPCYISPEDCEGKPYNQKSDI	3.4
VVGTPCYISPEMCEGKPYNQKSDI	2.76
VVGTPCYISPECCEGKPYNQKSDI	3.29
VVGTPCYISPEWCEGKPYNQKSDI	1.83

Variant	protein stability index
VVGTPCYISPEICEGKPYNQKSDI	2.93
VVGTPCYISPEPCEGKPYNQKSDI	3.6
VVGTPCYISPEACEGKPYNQKSDI	3.1
VVGTPCYISPELCEGKPINQKSDI	2.79
VVGTPCYISPELCEGKPKNQKSDI	3.67
VVGTPCYISPELCEGKPPNQKSDI	3.4
VVGTPCYISPELCEGKPWNQKSDI	2.6
VVGTPCYISPELCEGKPENQKSDI	3.72
VVGTPCYISPELCEGKPNNQKSDI	3.63
VVGTPCYISPELCEGKPSNQKSDI	3.86
VVGTPCYISPELCEGKPYNQKVDI	2.36
VVGTPCYISPELCEGKPYNQKADI	2.48
VVGTPCYISPELCEGKPYNQKTDI	2.95
VVGTPCYISPELCEGKPYNQKDDI	3.05
VVGTPCYISPELCEGKPYNQKRDI	3.01
VVGTPCYISPELCEGKPYNQKGDI	2.67
VVGTPCYISPELCEGKPYNQKCDI	2.52
VVGTPCYISPELCEGKPYNQKWDI	1.26
VVGTPCYISPELCEGKPYNQKQDI	2.85
VVGTPCYISPELCEGKPYNQKSMI	2.18
VVGTPCYISPELCEGKPYNQKSTI	2.63
VVGTPCYISPELCEGKPYNQKSAI	2.74
VVGTPCYISPELCEGKPYNQKSYI	2.44
VVGTPCYISPELCEGKPYNQKSII	2.19

Variant	protein stability index
VVGTPCYISPELCEGKPYNQKSFI	2.04
VVGTPCYISPELCEGKPYNQKSCI	2.93
VVGTPCYISPELCEGKPYNQKSPI	2.35
VVGTPCYISPELCEGKPYNQKSRI	2.29
VVGTPCYISPELCEGKPYNQKSQI	2.36
VVGTPCYISPELCEGKPYNIKSDI	2.24
VVGTPCYISPELCEGKPYNTKSDI	2.48
VVGTPCYISPELCEGKPYNHKSDI	2.59
VVGTPCYISPELCEGKPYNWKSDI	1.89
VVGTPCYISPELCEGKPYNMKSDI	2.22
FVGTPCYISPELCEGKPYNQKSDI	1.22
YVGTPCYISPELCEGKPYNQKSDI	2.88
WVGTPCYISPELCEGKPYNQKSDI	2.62
NVGTPCYISPELCEGKPYNQKSDI	4.48
KVGTPCYISPELCEGKPYNQKSDI	4.06
QVGTPCYISPELCEGKPYNQKSDI	4.14
CVGTPCYISPELCEGKPYNQKSDI	3.31
AVGTPCYISPELCEGKPYNQKSDI	3.78
GVGTPCYISPELCEGKPYNQKSDI	4.28
IVGTPCYISPELCEGKPYNQKSDI	2.32
VVGTPCYISPELFEGKPYNQKSDI	2.19
VVGTPCYISPELDEGKPYNQKSDI	3.34
VVGTPCYISPELWEGKPYNQKSDI	1.92
VVGTPCYISPELKEGKPYNQKSDI	3.38

Variant	protein stability index
VVGTPCYISPELEEGKPYNQKSDI	2.98
VVGTPCYISPELREGKPYNQKSDI	3.27
VVGTPCYISPELLEGKPYNQKSDI	2.88
VVGTPCYISPELYEGKPYNQKSDI	2.79
VVGTPCYISPELMEGKPYNQKSDI	2.79
VVGTPCYISPELGEGKPYNQKSDI	3.08
VVGTPCYISPELSEGKPYNQKSDI	2.9
VKGTPCYISPELCEGKPYNQKSDI	3.93
VAGTPCYISPELCEGKPYNQKSDI	3.49
VWGTPCYISPELCEGKPYNQKSDI	2.8
VRGTPCYISPELCEGKPYNQKSDI	3.4
VQGTPCYISPELCEGKPYNQKSDI	3.77
VGGTPCYISPELCEGKPYNQKSDI	3.66
VVGTRCYISPELCEGKPYNQKSDI	2.76
VVGTTCYISPELCEGKPYNQKSDI	3.32
VVGTNCYISPELCEGKPYNQKSDI	3.21
VVGTHCYISPELCEGKPYNQKSDI	3.14
VVGTKCYISPELCEGKPYNQKSDI	3.18
VVGTLCYISPELCEGKPYNQKSDI	2.28
VVGTYCYISPELCEGKPYNQKSDI	2.06
VVGTPCYISPELCHGKPYNQKSDI	2.23
VVGTPCYISPELCTGKPYNQKSDI	2.73
VVGTPCYISPELCVGKPYNQKSDI	2.23
VVGTPCYISPELCYGKPYNQKSDI	2.25

Variant	protein stability index
VVGTPCYISPELCIGKPYNQKSDI	2.2
VVGTPCYISPRLCEGKPYNQKSDI	2.49
VVGTPCYISPKLCEGKPYNQKSDI	2.74
VVGTPCYISPVLCEGKPYNQKSDI	1.59
VVGTPCYISPHLCEGKPYNQKSDI	2.03
VVGTPCYISPFLCEGKPYNQKSDI	1.5
VVGTPCYISPSLCEGKPYNQKSDI	2.7
VVGTPCYISPPLCEGKPYNQKSDI	1.76
VVGTPCYISPELCEGKPYLQKSDI	2.21
VVGTPCYISPELCEGKPYKQKSDI	2.98
VVGTPCYISPELCEGKPYIQKSDI	2.38
VVGTPCYISPELCEGKPYFQKSDI	2.14
VVGTPCYISPELCEGKPYVQKSDI	2.73
VVGTPCYISPELCEGKPYTQKSDI	2.98
VVITPCYISPELCEGKPYNQKSDI	1.8
VVMTPCYISPELCEGKPYNQKSDI	1.84
VVYTPCYISPELCEGKPYNQKSDI	1.65
VVWTPCYISPELCEGKPYNQKSDI	2.05
VVNTPCYISPELCEGKPYNQKSDI	3.52
VVCTPCYISPELCEGKPYNQKSDI	2.23
